Read-outs that look alike come from different tables or passages of the source.
Target: T1, PP2A (Homo sapiens, UniProt P67775)
T1 construct: purchased LSBio
Experiment: BLI: PP2A analyte binding to immobilized Caspase 9 (Protein A biosensor, anti-Caspase 9)
Procedure: Kinetic analysis was performed based on biolayer interferometry (BLI) by using a BLItz instrument (ForteBio, Bayonne, France) at room temperature. Prior to use, each biosensor was hydrated in sample diluent (SD: PBS1X, pH 7.0, 0.02% Tween 20, 0.1% BSA) for at least 10 min. Kinetic measurements of PP2A/Caspase 9 interactions were run with Protein A biosensors (Fortebio) and consisted of seven steps, all performed in reaction buffer, as follows: (i) initial baseline in 300 µL SD for 30 s was measured; (ii) 4 µL of mouse anti-Caspase 9 or rabbit anti-PP2A were immobilized on the sensor for 150 s at 133 nM; (iii) the immunosensor was washed with 300 µL SD for 120 s; (iv) 4 µL of purified ligand Caspase 9 at 566 nM (Origen) or PP2A at 694 nM (LSBio) were loaded on the immunosensor for 150 s; (v) the ligand-coated immunosensor was washed with 300 µL SD for 120 s; (vi) association of purified analytes diluted in SD at the mentioned concentrations was studied for 150 s in 4 µL; and (vii) dissociation step was then monitored in 300 µL SD for 120 s.
Experiments using empty immunosensors (no ligand loaded) were run as control. Sensorgrams were fit globally to a 1:1 binding model by BLItz Pro software, from which the association (kon) and dissociation (koff) rate constants and apparent affinities (KD) were calculated. […]

T1 sequence (P67775 whole entry): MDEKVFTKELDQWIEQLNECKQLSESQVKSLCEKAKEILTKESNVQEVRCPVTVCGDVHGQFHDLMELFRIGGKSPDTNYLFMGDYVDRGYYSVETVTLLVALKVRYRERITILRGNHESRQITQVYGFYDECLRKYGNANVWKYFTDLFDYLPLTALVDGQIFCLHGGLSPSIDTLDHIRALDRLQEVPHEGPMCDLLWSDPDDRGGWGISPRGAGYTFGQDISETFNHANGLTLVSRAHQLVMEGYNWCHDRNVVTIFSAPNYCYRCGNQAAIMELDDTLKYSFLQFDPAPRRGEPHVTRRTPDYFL

- Kd (discussion summary of PP2A/Caspase 9 BLI studies, in the range of, read-out: binding affinity of PP2A to Caspase 9): ~150 nM
- Kd (summary: close to, PP2A analyte on immobilized Caspase 9, read-out: affinity, both models): ~100 nM
B1: Caspase 9: purified Caspase 9 protein (Origen), cysteine protease, initiator of intrinsic apoptosis (protein)
chain: MDEADRRLLRRCRLRLVEELQVDQLWDALLSRELFRPHMIEDIQRAGSGSRRDQARQLIIDLETRGSQALPLFISCLEDTGQDMLASFLRTNRQAAKLSKPTLENLTPVVLRPEIRKPEVLRPETPRPVDIGSGGFGDVGALESLRGNADLAYILSMEPCGHCLIINNVNFCRESGLRTRTGSNIDCEKLRRRFSSLHFMVEVKGDLTAKKMVLALLELAQQDHGALDCCVVVILSHGCQASHLQFPGAVYGTDGCPVSVEKIVNIFNGTSCPSLGGKPKLFFIQACGGEQKDHGFEVASTSPEDESPGSNPEPDATPFQEGLRTFDQLDAISSLPTPSDIFVSYSTFPGFVSWRDPKSGSWYVETLDDIFEQWAHSEDLQSLLLRVANAVSVKGIYKQMPGCFNFLRKKLFFKTS
modifications: Commercial purified Caspase 9 (Origen)

— article PMC9609871, “Binding and Kinetic Analysis of Human Protein Phosphatase PP2A Interactions with Caspase 9 Protein and the Interfering Peptide C9h” (Pharmaceutics, 2022)
